Test: soluble on expression in E. coli; label from the status in PepcDB or PDB records

Row | Sequence | soluble on expression in E. coli
1 | MGSDKIHHHHHHMSRSPFQTFVWRSEIFECQSTDIQRFYSLLAIETERLGLGSKILGQAGHHPLYLLQSPGQKAGLPNLLISAGFHGEESAGPWGLLHFLSQLDGELFKRVNLSVLPLVNPTGFAKGHRFNELGENPNRGFFIENGKAKPGADTSAEGRILLEHAHLLQVASRDGILTCHEDVLMTDTYVYTFEPSQAPGRFSHSLRDALGQYFPIAADGDVDNCPVRSGVIFNHFDTSFESFLVRSGARVGCCSETPGQQPLDQRILANAAAMNTFVNMLAPELS | not soluble
2 | MGSDKIHHHHHHMKRMTKIGIYGMAVWMLSACGNGTPDYDATGTFEATEVIVSAEAAGKLLQLEVEEGTRLKAGEEVGLVDTVQLYLKKLQLEASMKSVESQRPDLAKQIAATKQQITTAQREKKRVENLLAAGAANQKQLDDWDAQVTLLQQQLIAQESSLMKSTNSLTEQGNSVSIQVAQVEDQLNKCHIQSPIEGTVLAKYAEGGELASVGKPLFKVGEVDRMYLRAYVTSEQLSQVKLGDKVTVYSDYGNSEQKAYPGVVTWISDRSEFTPKTILTKNERANLVYAVKIAVKNDGSLKIGMYGGVVWKKENP | not soluble
3 | MSLKGKITLFFTALCFGLTGCIAPPKGLEKERFSINSYREISPQDLTCHCKTVRLGGKIVNTTVLANQTKIEVLSLPVSSISAKPFVELQSDGRFIVYFNGFVEPENLKERYITVGGQLAGTEKGKIEQADYTYPVVQADKYRIWTLSTTYDYPTDDWDEDDDWGFFRWRHRLWYVQPEIHYYLNEGGSHHHHHH | soluble
4 | MSLAKSYNAGINIIPTPRSLEKREGSFKLSDGVSIGAITPEAKKIATYFAAKISLATGYDVKVEDKGEITLVLDSCATFSPEGYALDVESSRVQVTACSPRGLFYGMQSFLQLLPAEIESAGIVRDVDWEAPAANIIDSPRFAYRGIHMDPCRHFMTVEEVKKQIDVLSMFKINTIHWHLTDDQGWRIEIKQYPGLAEIGGRRIEGEGVEYGPFYYTQEEIKDIVSYAAERFITIIPELEIPGHELAAISAYPGLSCKGDPVTPRNIWGVEDIVMCPGKESVFTFLENVIDEMVALFPGTYFHIGGDECPKESWKSCPLCQKRILEEGIKPDGKHTSEQLLHTYVVERIGKYLARYDKKIIGWDEILEGKPDSTATIMSWRGDAGGISAALSGHDAIMSPGPNGLYLDYYQGDSKIEPIAIGGCSTLEKVYNYNPVPDTLVLIGKDHHIIGVQANNWSEYFYNNDIREYHMYPRSLALAEVAWTDAKRKNYVDFERRINNAYVRLDGHGVNYHIPLPEQPGGSCDHIAFTDSVSLEFTTSRPISLVYTLDGTEPGVSSEIYTSPLSFYQNGILKIASLLSSGKLSKVRTIQIEKQVLLPAVDVEGSFHGLNMEVTYGMFLNMQEFMKTGKSVDVSTDIRETGELTSFVPSTNSMRDVRQYAAVATGFIDIPENGEGHHHHHH | not soluble
5 | MKRKSKAGGASDKSKSPKLKKRRSVVLEPIHISPKYLEDKFKTEFKKGFEKSNGPFPHWQLRNFVDNSDNVVEKIEDELQNFEGWKRKENDLYSLYQSDDLKSINPVENPAVFSFRQFLYKEVKEWLQNVSGVELTEQVDCNGSCYARTDSLLPHNDLIETRRFAFVYYITSADWDSEVNGGDLQLFNHDKKLQPTSVAAQFSPLRNSFMLFEVSEKSWHRVAEMLSEEPRLSINGWFHSTRRIEPKKPAVEAIQRFVPEAACKLSKLISKEYLQKERQDEVQQTFADSSELNLSKFIFEEIHDNAYSELISNPSCFETVGPVSKRHVARLDEEKSADLQNTKRIIQCLKSKNFAKLAAKLTGVTVTGAQTSVKVSRVEHGTYWVLGDEDAEQSSTDGYCLDVHLFVQKTNWDDEAGGDLIYIEEGDTEELLRISPSPNAASIVFREPGVISFMKYANCKSSDPFFLFTVSFYNVQVVED | not soluble
6 | MPQQTQTSAEKRCMVTKRIMLKLPDISAASLIPASIEASPAQVLGPASLAGIFPRGVRVYLTDTGAASQEKLVDAATHLRNLGYEPVPHLAARRIPSRVEFEEQVKRLAGEADVTDVLVVGGGVDRPAGPFASSMDMLSSGIFDRYGIKKIAIAGHPEGSPDFSEETAIAALRLKRDFGERSDAAMRIVTQFGFDPARFIAWAEGLAASGIDLPVHIGVSGPAKITTLLKYAALCGVGNSIAYLKKNALSLTTLARGHSPDSIVGPIERHWQANPQGPIRQIHVFPFGGLQNSADWLVSRGSWQTRDAGRPAPADSMAG | not soluble
7 | MPSRKFADGEVVRGRWPGSSLYYEVEILSHDSTSQLYTVKYKDGTELELKENDIK | soluble
8 | MSHLYDPTTQYYTGEYPKQKQPAPGVQAKMTPVPDCGEKSYVGSGRLKDRKALVTGGDSGIGRAAAIAYAREGADVAINYLPAEEEDAQQVKALIEECGRKAVLLPGDLSDESFARSLVHKAREALGGLDILALVAGKQTAIPEIKDLTSEQFQQTFAVNVFALFWITQEAIPLLPKGASIITTSSIQAYQPSPHLLDYAATKAAILNYSRGLAKQVAEKGIRVNIVAPGPIWTALQISGGQTQDKIPQFGQQTPMKRAGQPAELAPVYVYLASQESSYVTAEVHGVCGGEHLG | not soluble
9 | MSEIVVSKFGGTSVADFDAMNRSADIVLSDANVRLVVLSASAGITNLLVALAEGLEPGERFEKLDAIRNIQFAILERLRYPNVIREEIERLLENITVLAEAAALATSPALTDELVSHGELMSTLLFVEILRERDVQAQWFDVRKVMRTNDRFGRAEPDVAALAELAALQLLPRLNEGLVITQGFIGSENKGRTTTLGRGGSDYTAALLAEALHASRVDIWTDVPGIYTTDPRVVSAAKRIDEIAFAEAAEMATFGAKVLHPATLLPAVRSDIPVFVGSSKDPRAGGTLVCNKTENPPLFRALALRRNQTLLTLHSLNMLHSRGFLAEVFGILARHNISVDLITTSEVSVALTLDTTGSTSTGDTLLTQSLLMELSALCRVEVEEGLALVALIGNDLSKACGVGKEVFGVLEPFNIRMICYGASSHNLCFLVPGEDAEQVVQKLHSNLFE | not soluble
10 | LQASCSDDQEHRLGSLDFYTGVFALEKSRIAEISNRATLELQKMATSGEPMWLRSVETGREILNYDEYLKEFPQAQASSFPGRKTIEASRDAGIVFMDAHKLAQSFMDVGQWKETFACLISKAATVDVIRQGEGPSRIDGAIQLMFGEMQLLTPVVPTREVYFVRSCRQLSPEKWAIVDVSVSVEDSNTEKEASLLKCRKLPSGCIIEDTSNGHSKVTWVEHLDVSASTVQPLFRSLVNTGLAFGARHWVATLQLHCERLVFFMATNVPTKDSLGVTTLAGRKSVLKMAQRMTQSFYRAIAASSYHQWTKITTKTGQDMRVSSRKNV | soluble
11 | SSTFSASDFNSERYSSSRPSYPSDFYKMIDEYHDGERKLLVDVGCGPGTATLQMAQELKPFEQIIGSDLSATMIKTAEVIKEGSPDTYKNVSFKISSSDDFKFLGADSVDKQKIDMITAVECAHWFDFEKFQRSAYANLRKDGTIAIWGYADPIFPDYPEFDDLMIEVPYGKQGLGPYWEQPGRSRLRNMLKDSHLDPELFHDIQVSYFCAEDVRDKVKLHQHTKKPLLIRKQVTLVEFADYVRTWSAYHQWKQDPKNKDKEDVADWFIKESLRRRPELSTNTKIEVVWNTFYKLGKRV | soluble
12 | MRGSHHHHHHGSACVSKRRVVVTGLGMLSPVGNTVESTWKALLAGQSGISLIDHFDTSAYATKFAGLVKDFNCEDIISRKEQRKMDAFIQYGIVAGVQAMQDSGLEITEENATRIGAAIGSGIGGLGLIEENHTSLMNGGPRKISPFFVPSTIVNMVAGHLTIMYGLRGPSISIATACTSGVHNIGHAARIIAYGDADVMVAGGAEKASTPLGVGGFGAARALSTRNDNPQAASRPWDKERDGFVLGDGAGMLVLEEYEHAKKRGAKIYAELVGFGMSSDAYHMTSPPENGAGAALAMANALRDAGIEASQIGYVNAHGTSTPAGDKAEAQAVKTIFGEAASRVLVSSTKSMTGHLLGAAGAVESIYSILALRDQAVPPTINLDNPDEGCDLDFVPHEARQVSGMEYTLCNSFGFGGTNGSLIFKKI | soluble
13 | MGLYAISDLHLAFNLDKPMNIFGEEWSKHDEKIKKNWISKISEEDTVLIAGDISWSMDIENGEEDLNWIDCLPGKKIICKGNHDYWWKSITKLNNMYKSISFLQNNFFEYKDYAICGTRGWIDKSFDSFDEHDKKVYKREIIRLRLSLDAAVKKGYSKFIVMFHYPPFKDENSGSEFTEVLEEYKVEKAIYGHLHGPALKNISGSIVKNGVEYMLTSCDYIEFNPIKIDLKLEHHHHHH | soluble
14 | MGHHHHHHSHMVTPVTWMDNPIEVYVNDSVWVPGPTDDHCPAKPEEEGMMINISIGYHYPPICLGRAPGCLMPAVQNWLVEVPTVSPISRFTYHMVSGMSLRPRVNYLQDFSYQRSLKFRPKGKPCPKEIPKGSKNTEVLVWEECVANSAVILQNSEFGTIID | not soluble

Reference: the DeepSol protein solubility set
